Source: the supplement of paper PMC10567573

B1: C8orf76 (parent)
chain: KLAEAYLNLGPALSAALASSQKQH
B2: BTBD10 (parent)
chain: FVYENAKEGARNIRTSERVTLIVD

Variants of: B1
Test: protein stability index of a GFP-peptide fusion (GPS, HEK-293T) (PSI 1-6); higher = more stable
Settings: c terminus: a fixed tail appended
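Further: lentivirally expressed fusions sorted by FACS into six bins by GFP to DsRed ratio, PSI derived from sequencing read proportions per bin multiplied by bin number.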

Variant | protein stability index
KLAEAYLNLGPALSAALASSQKQT [H24T] | 2.79
KLAEAYLNLGPALSAALASSQKQV [H24V] | 3.61
KLAEAYLNLGPALSAALASSQKQW [H24W] | 1.9
KLAEAYLNLGPALSAALASSQKQY [H24Y] | 2.56

Variants of: B2
Test: as above
Settings: c terminus: a fixed tail appended

Variant | protein stability index
AVYENAKEGARNIRTSERVTLIVD [F1A] | 3.21
CVYENAKEGARNIRTSERVTLIVD [F1C] | 2.5
DVYENAKEGARNIRTSERVTLIVD [F1D] | 3.29
EVYENAKEGARNIRTSERVTLIVD [F1E] | 3.94
GVYENAKEGARNIRTSERVTLIVD [F1G] | 3.33
HVYENAKEGARNIRTSERVTLIVD [F1H] | 3.69
IVYENAKEGARNIRTSERVTLIVD [F1I] | 2.71
KVYENAKEGARNIRTSERVTLIVD [F1K] | 3.28
LVYENAKEGARNIRTSERVTLIVD [F1L] | 3.05
MVYENAKEGARNIRTSERVTLIVD [F1M] | 3.78
NVYENAKEGARNIRTSERVTLIVD [F1N] | 3.75
PVYENAKEGARNIRTSERVTLIVD [F1P] | 3.46
QVYENAKEGARNIRTSERVTLIVD [F1Q] | 2.9
RVYENAKEGARNIRTSERVTLIVD [F1R] | 3.3
SVYENAKEGARNIRTSERVTLIVD [F1S] | 3.23
TVYENAKEGARNIRTSERVTLIVD [F1T] | 3.06
VVYENAKEGARNIRTSERVTLIVD [F1V] | 3.7
WVYENAKEGARNIRTSERVTLIVD [F1W] | 2.55
YVYENAKEGARNIRTSERVTLIVD [F1Y] | 2.27
FAYENAKEGARNIRTSERVTLIVD [V2A] | 2.78
FCYENAKEGARNIRTSERVTLIVD [V2C] | 2.33
FDYENAKEGARNIRTSERVTLIVD [V2D] | 3.56
FEYENAKEGARNIRTSERVTLIVD [V2E] | 3.83

Variant | protein stability index
FFYENAKEGARNIRTSERVTLIVD [V2F] | 2.31
FGYENAKEGARNIRTSERVTLIVD [V2G] | 3.31
FHYENAKEGARNIRTSERVTLIVD [V2H] | 3.07
FIYENAKEGARNIRTSERVTLIVD [V2I] | 2.37
FKYENAKEGARNIRTSERVTLIVD [V2K] | 3.06
FLYENAKEGARNIRTSERVTLIVD [V2L] | 2.41
FMYENAKEGARNIRTSERVTLIVD [V2M] | 2.6
FNYENAKEGARNIRTSERVTLIVD [V2N] | 3.58
FPYENAKEGARNIRTSERVTLIVD [V2P] | 3.53
FQYENAKEGARNIRTSERVTLIVD [V2Q] | 3.07
FRYENAKEGARNIRTSERVTLIVD [V2R] | 3.04
FSYENAKEGARNIRTSERVTLIVD [V2S] | 3.27
FTYENAKEGARNIRTSERVTLIVD [V2T] | 3.08
FWYENAKEGARNIRTSERVTLIVD [V2W] | 1.97
FYYENAKEGARNIRTSERVTLIVD [V2Y] | 2.45
FVAENAKEGARNIRTSERVTLIVD [Y3A] | 2.08
FVCENAKEGARNIRTSERVTLIVD [Y3C] | 2.17
FVDENAKEGARNIRTSERVTLIVD [Y3D] | 3.22
FVEENAKEGARNIRTSERVTLIVD [Y3E] | 3.75
FVFENAKEGARNIRTSERVTLIVD [Y3F] | 2.12
FVGENAKEGARNIRTSERVTLIVD [Y3G] | 2.35
FVHENAKEGARNIRTSERVTLIVD [Y3H] | 2.11
FVIENAKEGARNIRTSERVTLIVD [Y3I] | 2.26

Variant | protein stability index
FVKENAKEGARNIRTSERVTLIVD [Y3K] | 2.08
FVLENAKEGARNIRTSERVTLIVD [Y3L] | 1.92
FVMENAKEGARNIRTSERVTLIVD [Y3M] | 2.2
FVNENAKEGARNIRTSERVTLIVD [Y3N] | 2.48
FVPENAKEGARNIRTSERVTLIVD [Y3P] | 1.72
FVQENAKEGARNIRTSERVTLIVD [Y3Q] | 2.62
FVRENAKEGARNIRTSERVTLIVD [Y3R] | 2.73
FVSENAKEGARNIRTSERVTLIVD [Y3S] | 1.96
FVTENAKEGARNIRTSERVTLIVD [Y3T] | 2.22
FVVENAKEGARNIRTSERVTLIVD [Y3V] | 2.22
FVWENAKEGARNIRTSERVTLIVD [Y3W] | 2.19
FVYANAKEGARNIRTSERVTLIVD [E4A] | 1.82
FVYCNAKEGARNIRTSERVTLIVD [E4C] | 2.56
FVYDNAKEGARNIRTSERVTLIVD [E4D] | 2.08
FVYFNAKEGARNIRTSERVTLIVD [E4F] | 1.65
FVYGNAKEGARNIRTSERVTLIVD [E4G] | 1.75
FVYHNAKEGARNIRTSERVTLIVD [E4H] | 2.16
FVYINAKEGARNIRTSERVTLIVD [E4I] | 2.35
FVYKNAKEGARNIRTSERVTLIVD [E4K] | 2.25
FVYLNAKEGARNIRTSERVTLIVD [E4L] | 1.48
FVYMNAKEGARNIRTSERVTLIVD [E4M] | 1.91
FVYNNAKEGARNIRTSERVTLIVD [E4N] | 1.57
FVYPNAKEGARNIRTSERVTLIVD [E4P] | 1.69

Variant | protein stability index
FVYQNAKEGARNIRTSERVTLIVD [E4Q] | 1.94
FVYRNAKEGARNIRTSERVTLIVD [E4R] | 1.91
FVYSNAKEGARNIRTSERVTLIVD [E4S] | 1.66
FVYTNAKEGARNIRTSERVTLIVD [E4T] | 2.18
FVYVNAKEGARNIRTSERVTLIVD [E4V] | 2.83
FVYWNAKEGARNIRTSERVTLIVD [E4W] | 1.83
FVYYNAKEGARNIRTSERVTLIVD [E4Y] | 1.92
FVYEAAKEGARNIRTSERVTLIVD [N5A] | 1.9
FVYECAKEGARNIRTSERVTLIVD [N5C] | 2.42
FVYEDAKEGARNIRTSERVTLIVD [N5D] | 2.21
FVYEEAKEGARNIRTSERVTLIVD [N5E] | 2.35
FVYEFAKEGARNIRTSERVTLIVD [N5F] | 1.9
FVYEGAKEGARNIRTSERVTLIVD [N5G] | 2.47
FVYEHAKEGARNIRTSERVTLIVD [N5H] | 2.19
FVYEIAKEGARNIRTSERVTLIVD [N5I] | 1.61
FVYEKAKEGARNIRTSERVTLIVD [N5K] | 1.94
FVYELAKEGARNIRTSERVTLIVD [N5L] | 1.34
FVYEMAKEGARNIRTSERVTLIVD [N5M] | 1.61
FVYEPAKEGARNIRTSERVTLIVD [N5P] | 2.52
FVYEQAKEGARNIRTSERVTLIVD [N5Q] | 2.64
FVYERAKEGARNIRTSERVTLIVD [N5R] | 1.95
